{"source": "patent US20250114431A1", "about": "“COMPOUND, COMPOSITION AND METHODS FOR LOWERING CIRCULATING GLUCOSE” (THE HONG KONG POLYTECHNIC UNIVERSITY, priority 2023, published 2025)", "molecules": {"B1": {"name": "mPLAC9: recombinant mouse Plac9 synthesized and purified from E. coli expressing mouse Plac9 represented by SEQ ID NO: 2 (protein, listed as Mus musculus)", "chain": "EWGQGPRDTPGRRAAESPSSPGDLAGSPGCDRHAAVQRRLDIMEETVEKTVEHLEAEVTGLLGLLEELASNLPTGPFSPKPDLLGDDGF"}}, "key": {"[1]": {"tested_on": "primary hepatocytes", "test": "Glucose uptake assay (2DG6P) in primary hepatocytes", "format": "cell-based", "method": "(§1) To verify that the glucose homeostasis is regulated through liver or hepatocytes by overexpression of Plac9 in an insulin-independent manner, an in vitro insulin secretion assay was performed on confluent pancreatic beta cells, MIN6, in each well treated by […] of Exendin-4 or different concentrations of recombinant Plac9 of mouse origin at 10, 100 and 1000 nM (n=8) and measured the insulin content of each well by a mouse insulin ELISA kit. […] A glucose uptake assay was performed on primary hepatocytes and hepatic cell line, HepG2, treated with different concentrations (from 0.125 or 0.25 to 1.0 μM) in the presence or absence of exogenous 10 nM insulin, and the results are shown in FIGS. 5B and 5C, respectively."}, "[2]": {"tested_on": "STZ-induced diabetic mice", "test": "Recombinant Plac9 in streptozotocin (STZ)-induced insulin-deficient diabetic mouse model, biometric data and glucose tolerance test", "format": "in vivo, C57BL/6J mice", "method": "Turning to FIG. 3A, 8-week-old male C57BL/6J mice (n=8) which were fed with standard chow (STC) diet were treated with streptozotocin (STZ) for 5 days to induce diabetes. Similar to Example 1, 2 mg/kg (BW) of recombinant mPLAC9 was administered to the STZ-induced diabetic mice via i.p. injection once daily for 18 days (treatment group). In parallel, PBS was injected to STZ-induced diabetic mice for 18 days as a control group.\nGTT was also performed at Day 5 and Day 15 in this STZ-induced diabetic model. […] Similar trend was observed between the treatment and control groups at Day 15 (FIGS. 3H-3I)."}, "[3]": {"tested_on": "MIN6 pancreatic beta cells", "test": "Glucose stimulated insulin secretion assay in MIN6 cells (mouse insulin ELISA)", "format": "cell-based", "conditions": "10, 100 and 1000 nM, n=8; FIG. 5A", "method": "as §1"}, "[4]": {"tested_on": "HFD-fed obese mice", "test": "Recombinant Plac9 in high-fat diet (HFD)-induced obese, diabetic (DM2) mouse model, biometric data and glucose tolerance test", "format": "in vivo, C57BL/6J mice", "conditions": "vs PBS control", "method": "Turning to FIG. 2A, 8-week-old male C57BL/6J mice (n=8) were fed with a high-fat diet (HFD) for 12 weeks to induce a diabetes mellitus type 2 (DM2) model and then treated with 2 mg/kg (per body weight; hereinafter as “BW”) of recombinant mouse Plac9 (synthesized and purified from E. coli expressing mouse Plac9 represented by SEQ ID NO: 2; hereinafter as “mPLAC9”) once daily via intraperitoneal (i.p.) injection for 18 days to evaluate its effects on glucose uptake and tolerance in an obese, diet-induced diabetic model. Body weight (FIG. 2B), fasting blood glucose level (FIG. 2C), feeding blood glucose level (FIG. 2D) and blood insulin level (FIG. 2E) were measured at the beginning of the i.p. injection and then once every 3 days until the end of the experiment (i.e., Day 3, 6, 9, 12, 15 and 18). Another group of HFD-fed mice was injected with PBS once daily and measured with the same biometric data as in the Plac9-injected group (treatment group) once every 3 days from the beginning of the injection until the end of the experiment.\nGlucose tolerance test (GTT) was also performed in both the treatment and control groups at Day 0 and Day 15 of the experiment. […] At Day 15, the overall blood glucose level was also lower in the treatment group than that of the control group over the 90-minute time course (FIGS. 2H-2I)."}}}
{"molecule": "B1", "values": [{"measurement": "glucose uptake", "setting": "[1]; 0.125 to 1.0 μM, with or without 10 nM insulin, FIG. 5B", "result": "enhanced by Plac9 is in a dose-dependent manner"}, {"measurement": "glucose uptake on co-administration with insulin", "setting": "[1]; co-administration with 10 nM insulin, overall statement for liver or hepatocytes (primary hepatocytes and HepG2)", "result": "further enhance the glucose uptake"}, {"measurement": "change in body weight", "setting": "[2]; 2 mg/kg BW i.p. once daily, 18 days, treatment vs PBS control, FIG. 3B", "result": "similar"}, {"measurement": "change in fasting glucose level", "setting": "[2]; 2 mg/kg BW i.p. once daily, 18 days, treatment vs PBS control, FIG. 3C", "result": "similar"}, {"measurement": "change in feeding glucose level", "setting": "[2]; 2 mg/kg BW i.p. once daily, 18 days, treatment vs PBS control, FIG. 3D", "result": "similar"}, {"measurement": "overall blood glucose level in GTT", "setting": "[2]; Day 0, 90-minute time course, vs PBS control, FIGS. 3F-3G", "result": "lower"}, {"measurement": "blood insulin level", "setting": "[2]; Day 0 to Day 5, treatment vs PBS control, FIG. 3E", "result": "similar"}, {"measurement": "blood insulin concentration", "setting": "[2]; from Day 5 till the end of the experiment, no change in control group, FIG. 3E", "result": "increased"}, {"measurement": "restoration of blood insulin level to the level measured at Day 0", "setting": "[2]; till the end of the experiment, FIG. 3E", "result": "could not be restored"}, {"measurement": "insulin secretion", "setting": "[3]", "result": "does not induce insulin secretion"}, {"measurement": "body weight change", "setting": "[4]; 2 mg/kg BW i.p. once daily, 18 days, FIG. 2B", "result": "no obvious weight change"}, {"measurement": "fasting blood glucose level", "setting": "[4]; 2 mg/kg BW i.p. once daily, 18 days, FIG. 2C", "result": "no obvious changes"}, {"measurement": "feeding blood glucose level", "setting": "[4]; 2 mg/kg BW i.p. once daily, 18 days, FIG. 2D", "result": "no obvious changes"}, {"measurement": "blood glucose level in glucose tolerance test (GTT)", "setting": "[4]; Day 0, 90-minute time course, FIGS. 2F-2G", "result": "more significantly reduced"}, {"measurement": "blood insulin concentration", "setting": "[4]; Day 15, 2 mg/kg BW i.p. once daily, FIG. 2E", "result": "reduced"}, {"measurement": "overall blood glucose level in glucose tolerance test (GTT)", "setting": "[4]; Day 15, 90-minute time course, FIGS. 2H-2I", "result": "lower"}]}
